Series [1] concerns the molecule itself. The series can be described thus: SEC; purified HSP22rec (100 µg) at 20 °C; Superdex 200 10/300GL, 0.25 mL/min, 20 mM Tris pH 7.4, 1 mM EDTA, 150 mM NaCl; masses from a calibration curve with standard proteins. For orientation: In gel filtration, larger molecules generally elute earlier.
The target in series [2] is T1, rhodanese from bovine liver (bovine, UniProt P00586 1-297).
T1 construct: rhodanese (thiosulfate sulfurtransferase) from bovine liver; called a monomeric enzyme of 33 kDa; In the assays it is heat denatured (50 °C) and aggregating; source: bought: Merck KGaA (rhodanese from bovine liver II)
T1 sequence (looked up): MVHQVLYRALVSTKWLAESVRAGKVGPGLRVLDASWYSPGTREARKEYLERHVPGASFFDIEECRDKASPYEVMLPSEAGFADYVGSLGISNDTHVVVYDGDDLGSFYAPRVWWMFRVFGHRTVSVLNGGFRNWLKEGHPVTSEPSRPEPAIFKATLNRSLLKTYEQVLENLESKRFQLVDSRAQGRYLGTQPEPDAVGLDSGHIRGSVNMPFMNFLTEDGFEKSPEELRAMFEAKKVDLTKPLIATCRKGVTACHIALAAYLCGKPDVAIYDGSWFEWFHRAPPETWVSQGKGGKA
The experiment in a line: co-sedimentation; heat aggregation assay with purified proteins: 8 to 25 µg of proteins in 50 µL MOPS 50 mM pH 7.5, DTT 1 mM, EDTA 1 mM, heated 20 min at 50 °C, 15 min on ice, centrifuged 30 min at 20,000 g; supernatants and pellets by SDS-PAGE; 1:1 mass ratio or molar ratios up to 9:1. To be noted: both partners purified.

Series [3] deals with the molecule itself. The experiment in a line: SEC; pea seed mitochondrial soluble proteins (7 mg) separated at 20 °C; fractions analysed by Western blot with the anti-HSP22 Cterm antibody.

“And” between values parts separate entries of the source, which are not always exact repeats. Equal entries are not always repeated.

What is called stoichiometry N is a count of units in the complex or per binding partner.

B1: recombinant HSP22 (HSP22rec), mature mitochondrial small heat shock protein HSP22 from pea (natural protein, UniProt P46254 32-202, looked up)
chain: FNTNAMRQYDQHSDDRNVDVYRHSFPRTRRDDLLLSDVFDPFSPPRSLSQVLNMVDLLTDNPVLSAASRRGWDARETEDALFLRLDMPGLGKEDVKISVEQNTLTIKGEEGAKESEEKEKSGRRFSSRIDLPEKLYKIDVIKAEMKNGVLKVTVPKMKEEERNNVINVKVD
notes: mature HSP22 of pea, amplified from a cDNA encoding the HSP22 precursor (UniProtKB P46254); 19.5 kDa and 170 residues stated; Cloned by NdeI/BamHI into pET3a, so an added initiator methionine is likely (surmise); No tag is mentioned; source: E. coli B834 pLys (pET3a, pET-HSP22), purified (anion exchange HitrapQ, two SEC steps on Superdex 200); also unpurified in soluble extract of the …
Consider B1, for which, in series [1], the “stoichiometry N” value is 20 mer and 12 mer and 8 mer. Besides, in series [2], the binding result was “binds”.

B2: native HSP22 of pea seed mitochondria (natural protein, UniProt P46254 32-202, looked up)
chain: B1 chain
notes: mitochondrial small heat shock protein HSP22 of pea, native protein in the soluble (matrix) extract of mitochondria from 22 h imbibed pea seeds; Detected by Western blot with anti-HSP22 peptide antibodies; source: endogenous, soluble protein extract of pea seed mitochondria
On to B2, for which the “stoichiometry N” value in series [3] was 2 mer and 3 mer.

(Values after publication PMC6981728, “The Mitochondrial Small Heat Shock Protein HSP22 from Pea is a Thermosoluble Chaperone Prone to Co-Precipitate with Unfolding Client Proteins” (International Journal of Molecular Sciences, 2019).)
